Test results as given in PMC8626586, “Structure of a bacterial α-1,2-glucosidase defines mechanisms of hydrolysis and substrate specificity in GH65 family hydrolases” (The Journal of Biological Chemistry, 2021).
Each block holds one molecule with its values, some of them ahead of it.

Legend:
FjGH65A [1] = target: T1, FjGH65A (Flavobacterium johnsoniae, UniProt A5FBJ5); test: X-ray crystal structure of the complex, […] Å; assay type: binding; conditions: crystal cryoprotected with 30% (w/v) glucose; four sites: subsites -1, +1, +2 and linker region
T1 construct: gene Fjoh_4428; residues 24-681, signal peptide removed, N-terminal His6 tag (pET28a), E. coli BL21(DE3); hexamer (433 kDa by gel filtration)

[2] = target: FjGH65A (Fjoh_4428), GH65 α-1,2-glucosidase from Flavobacterium johnsoniae (Flavobacterium johnsoniae); test: SEC; gel filtration on HiPrep 16/60 Sephacryl S-200 HR, 20 mM sodium citrate buffer (pH 6.0) with 150 mM NaCl; column calibrated with thyroglobulin, ferritin, aldolase, conalbumin and ovalbumin
[3] = target: FjGH65A (Fjoh_4428), GH65 α-1,2-glucosidase from Flavobacterium johnsoniae (Flavobacterium johnsoniae); test: crystal structure; space group C2, three monomers (MolA, MolB, MolC) in the asymmetric unit; hexamer by the crystallographic two-fold axis, PISA analysis; native 1.54 Å and glucose complex 1.40 Å
FjGH65A [4] = target: T2, FjGH65A (Flavobacterium johnsoniae, UniProt A5FBJ5, E472Q); test: hydrolysis activity; assay type: biochemical; conditions: general acid catalyst mutant
T2 construct: gene Fjoh_4428; residues 24-681, signal peptide removed, N-terminal His6 tag (pET28a), E. coli BL21(DE3); hexamer (433 kDa by gel filtration)

FjGH65A [5] = target: T3, FjGH65A (Flavobacterium johnsoniae, UniProt A5FBJ5, E616Q); test: hydrolysis activity; assay type: biochemical; conditions: general base catalyst mutant
T3 construct: gene Fjoh_4428; residues 24-681, signal peptide removed, N-terminal His6 tag (pET28a), E. coli BL21(DE3); hexamer (433 kDa by gel filtration)

[6] = substrate: OC[C@H]1O[C@H](F)[C@H](O)[C@@H](O)[C@@H]1O; test: hydrolysis kinetics (assay details for this substrate not stated); assay type: biochemical, Flavobacterium johnsoniae; conditions: kinetic conditions for this substrate not stated
Description: hydrolysis kinetics (assay details for this substrate not stated) on FjGH65A

T3 sequence (A5FBJ5 24-681 E616Q): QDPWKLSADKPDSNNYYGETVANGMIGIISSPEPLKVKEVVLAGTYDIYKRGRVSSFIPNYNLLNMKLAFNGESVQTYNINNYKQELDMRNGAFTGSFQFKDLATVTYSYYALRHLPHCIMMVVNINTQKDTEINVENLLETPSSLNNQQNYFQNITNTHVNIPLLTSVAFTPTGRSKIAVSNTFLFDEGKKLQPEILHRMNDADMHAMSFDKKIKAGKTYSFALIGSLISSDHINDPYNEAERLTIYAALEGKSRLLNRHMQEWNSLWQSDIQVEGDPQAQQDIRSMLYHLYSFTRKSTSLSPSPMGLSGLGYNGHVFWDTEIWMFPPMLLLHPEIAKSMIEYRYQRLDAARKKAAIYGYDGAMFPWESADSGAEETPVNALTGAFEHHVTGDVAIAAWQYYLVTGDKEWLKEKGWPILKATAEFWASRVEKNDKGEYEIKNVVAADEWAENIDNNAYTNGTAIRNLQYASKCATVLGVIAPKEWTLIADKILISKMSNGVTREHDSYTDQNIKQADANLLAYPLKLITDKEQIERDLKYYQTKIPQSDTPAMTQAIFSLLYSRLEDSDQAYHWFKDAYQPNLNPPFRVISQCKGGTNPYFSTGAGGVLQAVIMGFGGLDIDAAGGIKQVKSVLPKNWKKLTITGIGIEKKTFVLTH
T2 sequence (A5FBJ5 24-681 E472Q): as the sequence (A5FBJ5 24-681 E616Q) above, with E449Q, Q593E counted along it

Molecule: OC[C@H]1O[C@@H](O)[C@H](O)[C@@H](O)[C@@H]1O [β-glucose]
X-ray crystal structure of the complex, 1.40 Å (FjGH65A [1]): Each monomer of FjGH65A binds four β-glucose molecules

stoichiometry N [2]: 6
Molecule: FjGH65A (Fjoh_4428), GH65 α-1,2-glucosidase from Flavobacterium johnsoniae (enzyme)
stoichiometry N [3]: 6

activity (% of wild type) (FjGH65A [4]): < 0.1%
activity (% of wild type) (FjGH65A [5]): < 0.1%
Molecule: OC[C@H]1O[C@H](O[C@H]2C(O)O[C@H](CO)[C@@H](O)[C@@H]2O)[C@H](O)[C@@H](O)[C@@H]1O (mixture of isomers) [Kojibiose]

B1: FjGH65A (Flavobacterium johnsoniae UW101) (protein)
chain: QDPWKLSADKPDSNNYYGETVANGMIGIISSPEPLKVKEVVLAGTYDIYKRGRVSSFIPNYNLLNMKLAFNGESVQTYNINNYKQELDMRNGAFTGSFQFKDLATVTYSYYALRHLPHCIMMVVNINTQKDTEINVENLLETPSSLNNQQNYFQNITNTHVNIPLLTSVAFTPTGRSKIAVSNTFLFDEGKKLQPEILHRMNDADMHAMSFDKKIKAGKTYSFALIGSLISSDHINDPYNEAERLTIYAALEGKSRLLNRHMQEWNSLWQSDIQVEGDPQAQQDIRSMLYHLYSFTRKSTSLSPSPMGLSGLGYNGHVFWDTEIWMFPPMLLLHPEIAKSMIEYRYQRLDAARKKAAIYGYDGAMFPWESADSGAEETPVNALTGAFEHHVTGDVAIAAWQYYLVTGDKEWLKEKGWPILKATAEFWASRVEKNDKGEYEIKNVVAADEWAENIDNNAYTNGTAIRNLQYASKCATVLGVIAPKEWTLIADKILISKMSNGVTREHDSYTDQNIKQADANLLAYPLKLITDKEQIERDLKYYQTKIPQSDTPAMTQAIFSLLYSRLEDSDQAYHWFKDAYQPNLNPPFRVISECKGGTNPYFSTGAGGVLQAVIMGFGGLDIDAAGGIKQVKSVLPKNWKKLTITGIGIEKKTFVLTH
notes: residues 24-681, signal peptide removed, N-terminal His6 tag (pET28a), E. coli BL21(DE3); hexamer (433 kDa by gel filtration)
Km [6]: 3.1 ± 0.2 mM
kcat [6]: 56.1 ± 1.8 s⁻¹
kcat/Km [6]: 18100 M⁻¹ s⁻¹
